{"source": "patent US20210187071A1", "about": "“COMPOSITIONS COMPRISING MDA-7/IL-24 PROTEIN AND METHODS OF USE” (VIRGINIA COMMONWEALTH UNIVERSITY, priority 2017, published 2021)", "molecules": {"B1": {"name": "MDA-7/IL-24 protein: Recombinant His-tagged MDA-7/IL-24 protein purified on Ni-NTA from supernatant of IM-PHFA cells infected with Ad.5-His-mda-7 (protein)", "chain": "QEFHFGPCQVKGVVPQKLWEAFWAVKDTMQAQDNITSARLLQQEVLQNVSDAESCYLVHTLLEFYLKTVFKNYHNRTVEVRTLKSFSTLANNFVLIVSQLQPSQENEMFSIRDSAHRRFLLFRRAFKQLDVEAALTKALGEVDILLTWMQKFYKL"}}, "key": {"[1]": {"test_system": "TRAP, Cathepsin K (CTSK), and Calcitonin Receptor (CTR) genes", "experiment": "RQ-PCR of osteoclastic genes in RAW 264.7 cells", "assay_type": "cell-based, mouse", "conditions": "5 days, MDA-7/IL-24 protein 10 μg/mL, RANKL 100 ng/mL", "method": "Real Time q-PCR: Total RNA was isolated from cells with the RNA isolation kit from Qiagen (Valencia, Calif., USA). RQ-PCR was performed using TaqMan probes and master mix from Applied Biosystems (Foster City, Calif., USA). Data were analyzed using the graph pad prism software.\nTo investigate the effect of MDA-7/IL-24 on osteoclast differentiation, bone marrow cells from athymic nude mice were isolated and induced to differentiate with RANKL in the presence or absence of MDA-7/IL-24 protein. Five days after induction with RANKL, osteoclast differentiation was measured by counting multinucleated cells. Cells positively stained for TRAP and multinucleated cells were quantified under a light microscope (FIG. 9A). […] To provide molecular insights into this inhibitory effect, we used a mouse macrophage cell line RAW 264.7, which can be induced to differentiate into osteoclasts when incubated with RANKL (32). Using RAW 264.7 cells, different genetic markers associated with osteoclastic differentiation were monitored (33). RAW 264.7 cells were treated with RANKL or MDA-7/IL-24 alone and in combination. RNA was isolated after 5 days of treatment and real time PCR quantified expression of TRAP, Cathepsin K (CTSK), and Calcitonin Receptor (CTR) genes. RANKL induced the expression of TRAP, CTSK and CTR gene expression. […]"}, "[2]": {"test_system": "p27, GRP78, and Beclin-1", "experiment": "Western blotting of downstream MDA-7/IL-24 signaling molecules in PC3-ML cells", "assay_type": "cell-based", "conditions": "western blot, vs untreated control", "source_text": "(§1) Western Blotting: Standard protocols were followed for Western blotting assays (24, 27). The primary antibodies used were pAkt, Akt, pGSK3β, GSK3β, NFATc1, cyclin D1 (Cell Signaling Technology, Danvers, Mass., USA) and EF1α (Abeam, Cambridge, United Kingdom). Appropriate secondary antibodies were purchased from Sigma-Aldrich, Inc. St. Louis, Mo., USA).\nAfter purification, the quality of the purified protein was confirmed using anti-MDA-7 antibody by western blotting (FIG. 1B). To confirm biological activity, PC3-ML cells were treated with MDA-7/IL-24 protein, and anti-proliferative and potential molecular changes were evaluated by MTT assays and western blotting analyses, respectively (FIGS. 1C and 1D). […] Next, to evaluate the long-term effect of MDA-7/IL-24 on cell proliferation, colony formation (clonal) assays were performed in an assortment of PC cell lines."}, "[3]": {"test_system": "bone marrow cells", "experiment": "Osteoclast differentiation of bone marrow from animals injected with elevated Akt-stable expression cells", "assay_type": "in vivo, mice", "conditions": "MDA-7/IL-24 protein 5 mg/kg, 6 doses; differentiation induced ex vivo", "method": "(§2) Osteoclast Formation Assays: Bone marrow cells were induced for osteoclast differentiation using previously described protocols (28). Briefly, bone marrow cells were cultured in minimal essential medium (α-MEM) with 10% fetal bovine serum with MCSF (10 ng/ml) for 24 hrs. They were subsequently treated with RANKL (100 ng/ml) for 5 days. Cultured cells were fixed and stained for TRAP (Tartarate-resistant acid phosphatase). TRAP staining was performed following the specific protocol provided with the kit (Sigma-Aldrich, Inc. St. Louis, Mo., USA). Multinucleated cells, considered as differentiated osteoclasts, were counted manually under bright field microscope. TRACP enzymatic assays were done as per the manufacturer's instructions (R & D, Minneapolis, Minn., USA).\nTo evaluate the role of Akt in vivo, metastatic PC3-ML cells and PC3-ML cells over expressing constitutively active Akt (PC3-MI/**) (FIG. 5A) carrying firefly luciferase were injected into male athymic nude mice through the intracardiac route. Clone 1 was used for the in vivo studies, which was validated for expression of Akt downstream pathway gene expression by western blotting (FIG. 14). Proliferation, invasion, and migration of the tumor cells were monitored by IVIS® imaging. […] The Akt overexpressing PC3-ML cells were more metastatic than the control PC3-ML cells. […]"}, "[4]": {"test_system": "Akt signaling (p-Akt, p-GSK3β, NFATc1, Mcl-1)", "experiment": "Western blotting of Akt signaling cascade in RAW 264.7 cells", "assay_type": "cell-based, mouse", "source_text": "as §1\nMDA-7/IL-24 Regulates AKT Signaling in Mouse Macrophage cells: To determine whether MDA-7/IL-24 protein exerts any effect on Akt activation in our model system, RAW 264.7 cells were treated with MDA-7/IL-24 protein in the presence or absence of RANKL. It was observed that RANKL induces Akt activation in RAW 264.7 cells, and this activated Akt was suppressed by MDA-7/IL-24 protein (FIGS. 3A and 11A). […] The effect of Akt inhibition by a PI3K kinase inhibitor (LY294002) was also studied in the signaling cascade involving NFAT, Mcl-1, and Akt (FIGS. 3B and 11B).\nA constitutively active form of Akt (MYR-Akt) was also tested. Cells were transfected with MYR-Akt and treated with MDA-7/IL-24."}, "[5]": {"test_system": "bone marrow cells", "experiment": "Osteoclast differentiation of bone marrow cells isolated from treated PC3-ML tumor bearing animals (TRAP staining, TRACP assay)", "assay_type": "in vivo, mice", "conditions": "MDA-7/IL-24 protein 5 mg/kg, 6 doses; differentiation induced ex vivo", "method": "as §2\nThis was quantified by counting the number of osteoclasts (FIG. 2D) and also measuring TRACP osteoclastic enzymatic activity (FIG. 2E). These initial results indicated a potential function of MDA-7/IL-24 in regulating osteoclast differentiation.\nSuppression of osteoclast differentiation was also evaluated using an in vivo metastatic model (FIG. 4C). Bone marrow cells were isolated after sacrifice of mice and osteoclast differentiation was induced. […] This was evident by counting osteoclasts (FIG. 4C) and also by measuring TRACP osteoclastic enzymatic activity (FIG. 4D)."}}, "note": "Entries after “also recorded” stand apart in the source; their conditions may differ."}
{"molecule": "B1", "values": [{"measurement": "RANKL-induced TRAP, CTSK and CTR gene expression", "setting": "[1]", "value": "attenuated RANKL-induced regulation of these genes"}, {"measurement": "levels of p27, GRP78, and Beclin-1", "setting": "[2]", "value": "Significant increases; also recorded: up-regulation of expression"}, {"measurement": "osteoclastic activity of bone marrow from animals with Akt overexpressing cells", "setting": "[3]", "value": "decreased"}, {"measurement": "RANKL-induced Akt activation", "setting": "[4]; MDA-7/IL-24 protein 10 μg/mL, RANKL 100 ng/mL", "value": "suppressed"}, {"measurement": "Phosphor-GSK3β, NFATc1, and Mcl-1 expression increased by constitutively active Akt", "setting": "[4]; RAW 264.7 cells transfected with MYR-Akt", "value": "inhibited"}, {"measurement": "Mcl-1 expression", "setting": "[4]; RAW 264.7 cells, MDA-7/IL-24 treatment", "value": "profoundly inhibited Mcl-1 expression"}, {"measurement": "number of osteoclasts from bone marrow of treated animals", "setting": "[5]", "value": "significantly fewer osteoclasts"}, {"measurement": "osteoclastic activity of bone marrow from treated animals", "setting": "[5]", "value": "less osteoclastic activity"}]}
